One molecule from paper doi:10.1101/2021.06.22.449466 (bioRxiv, 2021) can be followed below.

Assay [1] deals with T1, Human RPA (heterotrimeric RPA complex: RPA70, RPA32 and RPA14 subunits) (human, UniProt P27694;P15927;P35244). Nature of the assay: BLI.
In assay [2] the target is T1, Human RPA (heterotrimeric RPA complex: …). As to the kind of experiment: BLI. This is another data set of the same source. (BLI is a label-free optical method that tracks binding on a fibre tip over time.)

Like-named read-outs stand apart in the source and are kept apart here.

T1 sequence (P27694 whole entry, chain 1 of 3): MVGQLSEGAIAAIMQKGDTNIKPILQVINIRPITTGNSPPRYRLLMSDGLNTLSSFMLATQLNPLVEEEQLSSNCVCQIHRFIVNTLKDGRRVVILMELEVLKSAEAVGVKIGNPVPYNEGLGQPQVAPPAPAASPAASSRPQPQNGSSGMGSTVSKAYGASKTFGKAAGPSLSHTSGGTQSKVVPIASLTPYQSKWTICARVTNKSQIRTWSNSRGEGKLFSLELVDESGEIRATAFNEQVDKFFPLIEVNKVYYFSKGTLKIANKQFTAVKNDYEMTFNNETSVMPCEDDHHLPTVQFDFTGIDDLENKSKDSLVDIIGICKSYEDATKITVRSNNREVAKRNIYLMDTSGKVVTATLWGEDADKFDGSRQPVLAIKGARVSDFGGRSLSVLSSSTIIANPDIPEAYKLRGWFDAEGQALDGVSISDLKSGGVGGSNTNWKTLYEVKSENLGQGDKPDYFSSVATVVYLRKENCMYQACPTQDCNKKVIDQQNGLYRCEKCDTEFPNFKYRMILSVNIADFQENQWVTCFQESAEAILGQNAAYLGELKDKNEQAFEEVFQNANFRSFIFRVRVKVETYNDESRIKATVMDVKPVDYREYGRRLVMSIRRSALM
T1 sequence (P15927 whole entry, chain 2 of 3): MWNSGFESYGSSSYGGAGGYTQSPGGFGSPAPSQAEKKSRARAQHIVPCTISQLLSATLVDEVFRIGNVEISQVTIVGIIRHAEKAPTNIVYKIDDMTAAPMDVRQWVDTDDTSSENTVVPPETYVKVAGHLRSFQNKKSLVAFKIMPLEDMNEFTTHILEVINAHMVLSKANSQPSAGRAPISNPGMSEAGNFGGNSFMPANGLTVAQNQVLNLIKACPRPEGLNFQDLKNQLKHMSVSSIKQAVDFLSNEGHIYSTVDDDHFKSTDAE
T1 sequence (P35244 whole entry, chain 3 of 3): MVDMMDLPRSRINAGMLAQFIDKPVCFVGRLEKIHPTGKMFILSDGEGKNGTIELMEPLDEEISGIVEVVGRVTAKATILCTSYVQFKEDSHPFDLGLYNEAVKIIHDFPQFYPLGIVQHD

B1: Lamin-C (amino acid residues 1-152) (domain or fragment)
chain: METPSQRRATRSGAQASSTPLSPTRITRLQEKEDLQELNDRLAVYIDRVRSLETENAGLRLRITESEEVVSREVSGIKAAYEAELGDARKTLDSVAKERARLQLELSKVREEFKELKARNTKKEGDLIAAQARLKDLEALLNSKEAALSTAL
The Kd is a measure of binding affinity in units of concentration. As to B1, the figures for the dissociation constant Kd in assay [1] and in assay [2] were 35 µM and 1.5 µM, respectively.
